Data from patent publication US20230203538A1.
Values belong to the substance of their own block, whether it stands above or below them.

How the values were obtained:
[1] = biological target: CD5 on murine T cells (mouse) (UniProt P13379); experiment: cell-based or functional assay
[2] = biological target: CD5 on human ACH2 immortalized T cells (human) (UniProt P06127); experiment: cell-based or functional assay
Sequence of UniProt P06127 (P06127 25-495 limits assumed): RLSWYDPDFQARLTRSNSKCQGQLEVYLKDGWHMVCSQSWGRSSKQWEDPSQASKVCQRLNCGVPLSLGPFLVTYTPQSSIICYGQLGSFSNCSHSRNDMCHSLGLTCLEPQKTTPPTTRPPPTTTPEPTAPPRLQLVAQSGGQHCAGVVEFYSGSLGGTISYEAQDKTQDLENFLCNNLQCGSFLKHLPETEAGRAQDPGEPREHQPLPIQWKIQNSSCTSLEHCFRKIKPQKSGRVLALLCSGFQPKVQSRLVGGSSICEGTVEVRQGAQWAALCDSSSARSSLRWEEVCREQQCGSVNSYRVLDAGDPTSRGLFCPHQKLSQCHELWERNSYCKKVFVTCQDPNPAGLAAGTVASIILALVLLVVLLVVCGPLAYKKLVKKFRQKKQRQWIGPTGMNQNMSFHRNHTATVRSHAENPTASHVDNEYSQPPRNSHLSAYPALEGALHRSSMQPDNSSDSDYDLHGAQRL

Sequence of UniProt P13379 (P13379 24-494 limits assumed): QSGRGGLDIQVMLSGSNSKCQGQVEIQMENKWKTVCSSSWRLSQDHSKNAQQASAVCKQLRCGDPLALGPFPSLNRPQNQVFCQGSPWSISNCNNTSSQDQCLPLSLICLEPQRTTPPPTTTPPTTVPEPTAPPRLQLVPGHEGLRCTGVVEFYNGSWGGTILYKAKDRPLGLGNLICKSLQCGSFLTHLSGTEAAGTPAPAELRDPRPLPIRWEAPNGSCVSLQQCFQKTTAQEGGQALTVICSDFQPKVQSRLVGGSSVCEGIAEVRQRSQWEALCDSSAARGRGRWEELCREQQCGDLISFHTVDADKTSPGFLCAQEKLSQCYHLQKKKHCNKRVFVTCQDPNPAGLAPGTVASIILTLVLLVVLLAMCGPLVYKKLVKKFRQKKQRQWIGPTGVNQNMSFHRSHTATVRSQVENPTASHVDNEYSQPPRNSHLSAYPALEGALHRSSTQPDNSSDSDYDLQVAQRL

percent of murine T cells that received mRNA from IgG/LNP-FAPCAR (flow cytometry) [1]: 7%
Substance: control isotype matched IgG conjugated to LNP-mRNA (antibody)

percent of murine T cells expressing FAPCAR 48 hours after incubation with CD5/LNP-FAPCAR (flow cytometry) [1]: 83% | percent of murine T cells expressing GFP 48 hours after incubation with CD5/LNP-GFP (flow cytometry) [1]: 78%
Substance: purified rat anti-mouse CD5, clone 53-7.3 (BioLegend), conjugated to LNP-mRNA (antibody)

Substance: mouse anti-human CD5, clone UCHT2 (BioLegend), conjugated to LNP-mRNA (antibody)
percent gene transfer (GFP) in human ACH2 T cells 24 hours after mixing with CD5/LNP-GFP [2]: 89 to 93%
